This note sets out measurements from US20210122788A1 (published 2021).

Common to all, as to test: FACS binding to EL4 cells
For orientation: A flow cytometer gives signals particle by particle.

For experiment [1], the target named is T1, human CD160 on cells (human, UniProt O95971 25-159).
T1 chain: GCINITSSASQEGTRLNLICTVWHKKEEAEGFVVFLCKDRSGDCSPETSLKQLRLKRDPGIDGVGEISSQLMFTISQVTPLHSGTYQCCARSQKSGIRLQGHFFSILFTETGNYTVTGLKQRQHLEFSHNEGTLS

Experiment [2] deals with T2, human BTLA, wild-type, on cells (human, UniProt Q7Z6A9 31-289).
Experiment [3] concerns the target T1, human CD160 on cells.
In experiment [4] the target is T2, human BTLA, wild-type, on cells. The source holds these as a separate data set.

Where two headings read alike, the source gives them in different places.

B1: human HVEM Fc (Fc fusion)
chain: LPSCKEDEYPVGSECCPKCSPGYRVKEACGELTGTVCEPCPPGTYIAHLNGLSKCLQCQMCDPAMGLRASRNCSRTENAVCGCSPGHFCIVQDGDHCAACRAYATSSPGQRVQKGGTESQDTLCQNCPPGTFSPNGTLEECQHQTKCSWLVTKAGAGTSSSHWV
One may read the EC50 as the concentration that produces a half-maximal response. Read a high EC50 as a need for much substance. In the case of B1, the EC50 with human CD160 on cells [1] stood at 5.1 µg/mL; in experiment [2] it was 8.7 µg/mL; with human CD160 on cells [3], 5.1 µg/mL; in experiment [4], 8.7 µg/mL.
